Here are results for two molecules from patent publication US20050233350A1.

In general, IC50 refers to the concentration that gives 50% inhibition.

Assay [1] addresses T1, recombinant HLA-A2.1 protein with β2-microglobulin (human). Briefly: cell free HLA-A2.1 peptide binding (competition) assay, HA-1^R against HA-1^H. Particulars: remark: other sources report otherwise.
The target of assay [2] is T1, recombinant HLA-A2.1 protein with …. In words: cell free competition assay: inhibition of binding of fluorescent [..] to recombinant HLA-A2.1 and β2-microglobulin, gel filtration, 4 experiments. Particulars: remark: other sources report otherwise. (In general: SEC sorts molecules by how far they enter the pores of the column.)

Take VLRDDLLEA [HA-1^R peptide … (allelic counterpart of HA-1, synthetic)]: the fold lower binding affinity against the HA-1^H peptide in assay [1] is 10 fold. For the same molecule, the IC50 in assay [2] was found to be 365 nM.

Consider VLHDDLLEA [HA-1^H peptide … (minor histocompatibility antigen HA-1 nonapeptide, synthetic)], for which, in assay [2], the IC50 is 30 nM.
